According to the RNAGym collection of RNA variant scans (doi:10.1073/pnas.2313332121):
Fewer inactive variants are shown than the library holds.

B1: TPR 5TU (parent)
chain: GGAUCUUCUCGAUCUAACAAAAAAGACAAAUCUGCCACAAAGCUUGAGAGCAUCUUCGGAUGCAGAGGCGGCAGCCUUCGGUGGCGCGAUAGCGCCAACGUUCUCAACUAUGACACGCAAAACGCGUGCUCCGUUGAAUGGAGUUUAUCAUG

Variants of: B1
Test: polymerase ribozyme fitness, log enrichment relative to wild type (log ratio); higher = more active; in vitro selection for triplet polymerase activity
How it was run: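 Fitness compares each genotype's enrichment to that of the wild type on a logarithmic scale, averaging replicates with inverse-variance weights. The logarithm is base 2. Enrichment came from Illumina sequencing of input and output libraries after one triplicate round of in vitro selection, which included frozen incubation at −7 °C, of PCR-built, transcribed mutant libraries of each subunit of a heterodimeric triplet polymerase ribozyme. Only genotypes with ≥10 input reads and ≥1 read per output were kept.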

Compared with GGAUCUUCUCAAUCUAACAAAAAAGACAAAUCUGCCACAAAGCUUGAGAGCAUCUUCGGAUGCAGAGGCGGCAGCCUUCGGUGGCGCGAUAGCGCCAACGUUCUCAACUAUGUCACGCAAAACGCGUGCUCCGUUGAAUGGAGUUUAUCAUG [G11A A113U], GGAUCUUCUCAAUCUAACAAAAAAGACAAAUCUGCCACAAAGCUUGAGAGCAUAUUCGGAUGCAGAGGCGGCAGCCUUCGGUGGCGCGAUAGCGCCAACGUUCUCAACUAUGACACGCAAAACGCGUGCUCCGUUGAAUGGAGUUUAUCAUG [G11A C54A] is higher in “polymerase ribozyme fitness (log ratio)” value: -2.69 for the first, -2.47 for the second.

GGAUCUUCUCAAUCUAACAAAAAAGACAAAUCUGCCACAAAGCUUGAGAGCAUCUUCGGAUGCAGAGGCGGCAGCCUUCGGUGGCGCGAUGGCGCCAACGUUCUCAACUAUGACACGCAAAACGCGUGCUCCGUUGAUUGGAGUUUAUCAUG [G11A A91G A138U] and GGAUCUUCUCAAUCUAACAAAAAAGACAAAUCUGCCACAGAGCUUGAGCGCAUCUUCGGAAGCAGAGGCGGCAGCCUUCGAUGGCGCGAUAGCGCCAACGUUCUCAACUAUGACACGCAAAACGAGUGCUCCGUUGAAUGGAGUUUAUCAUG [G11A A40G A49C U61A G81A C125A] cannot be ordered by “polymerase ribozyme fitness (log ratio)” value: at most -4.2 for the first, at most -4.2 for the second.

GGAUCUUCUCAAUCUAACAAAAAAGACAAAUCUGCCAUAAAGCUUGAGAGCAUCUUCGCAUGCUGAGGCGGCAGCCUUCGAUGGCGCGAUAGUCCCAACGUUCUCAACUAUGACACGCAAAACGCGUGCUCCGUUGAAUGGAGUUUAUCAUG [G11A C38U G59C A64U G81A C93U G94C] and GGAUCUUCUCAAUCUAACAAAAAAGACAAAUCUGCCACUCAGCUUGAGAGCAUCUUCGGAUGCAGAGGCGGCAGCCUUCGGUGGCGCGAUAGCGCCAACCUUCUCAACUAUGACACGCAAAACGCGUGCUCCGUUGAAUGGAGUUUAUCAUG [G11A A39U A40C G100C] cannot be ordered by “polymerase ribozyme fitness (log ratio)” value: at most -4.2 for the first, at most -4.2 for the second.

GGAUCUUCUCAAUGUAACUAAAAAGAAAAACCUGCCACAAAGCUUGAGAGCAUCUUCGGAUGCAGAGGCGGCAGCCUUCGGUGGCGCGAUAGCGCCAACGUUCUCAACUAUGACACGGAAAACGCGUGCUCCGUUGAAUGGAGUUUAUCAUG [G11A C14G A19U C27A U31C C118G] and GGAUCUUCUCAAUCUAACAAAAAAGACAAAUCUGCCACAAAGCUUGAGAGCAUUUUCGGAAGCAGAGGCGGCAGCCUUCGGUGGCGCGAUAGCGACAACGUUCUCAACUAUGACACGCAAAACGCGUGCUCCGUUGAAUGGAGUUUAUGAUG [G11A C54U U61A C95A C149G] cannot be ordered by “polymerase ribozyme fitness (log ratio)” value: at most -4.2 for the first, at most -4.2 for the second.

First: GGAUCUUCUCAAUCUAACAAAAAAGACAAAUCUGCCACUAAGCUUGAGAGCAUCUUCGGAUGCAGAGGCGGCAGCCUUCGGUGGCGCGAUAGCGCCCACGUUCUCAACUAUGACACGCAAAACGCGUGCUCCGUUGAAUGGAGUUUAUCAUG [G11A A39U A97C]
Second: GGAUCUUCUCAAUCUAACAAAAAAGACAAAUCUGCCACGAAGCUUGAGAGCAUGUUCGGAUGCAGAGGCGGCAGCCUUCGGUGGCGUGAUAGCGCGAACGUUCUCAACUAUGACACGCAAAACGCGUGCUCCGUUGAAUGGAGUUUAUCAUG [G11A A39G C54G C87U C96G]
The “polymerase ribozyme fitness (log ratio)” value of the first is higher: -3.26 for the first, at most -4.2 for the second.

Compared with GGAUCUUCUCAAUCUAACAAAAAAGACAAAUCUGCCACAAAGCUUGAGAGCAUCUUCGGAUGCAGAGGCGGCAGCCUUCGGUGGGGCGAUAGCUCCAACGUUCUCAACUAUGACACGCAAAACGCGUGCUCCGUUGAAUGGAGUUUAUCAUG [G11A C85G G94U], GGAUCUUCUCAAUCUAACAAAAAAGACAAAUCUGCCACAAAGUUUGAGAGCAUUUUCGGAUGCAGAGGCGGCAGCCUUCGGUGGCGCGAUAGCGCCAACGUUCUCUAGUAUAACACGCAAAACGCGUGCUCCGUUGAAUGGAGUUUAUCAUG [G11A C43U C54U A106U C108G G112A] is lower in “polymerase ribozyme fitness (log ratio)” value: -0.903 for the first, at most -4.2 for the second.

GGAUCUUCUCAAUCUAACAAAAAAGACAAAUCUGCCACACAGCUUGAGCGCAUCUUCGGAUGCAGAGGCGGCACCCUUCGGUGGAGCGAUAGCGGCAACCUUCUCAACUAUGACACGCAAAACGCGUGCUCCGUUGAAUGGAGUUUUUCAUG [G11A A40C A49C G74C C85A C95G G100C A147U] and GGAUCUUCUCAAUCUAACAAAAAAGACAAAUCUGCCACAAUGCUUGAGAGCUUCAUCGGAUGCAGAGGCGGCAGCCUUCGGUGGCGCGAUAGCGCCAACGUUCUCAACUAUGACACGUAAAACGCGUGCUCCGUUGAAUGGAGUUUAUCAUG [G11A A41U A52U U55A C118U] cannot be ordered by “polymerase ribozyme fitness (log ratio)” value: at most -4.2 for the first, at most -4.2 for the second.

Compared with GGAUCUUCUCAAUCUAACAAAAAAGACAAAUCUGCCACAAAGCUUGAGAGCAUCUUCGGAUGCAGAGGCGGCAGCCUUCGGUGGCGCGAUAGGGCCAACGUUCUCAACUAUGACACGCAAAACGCGUGCUCCGUUGAAUGGAGUUUAUCAUG [G11A C93G], GGAUCUUCUCAAUCUAACAAAAAAGACAAAUCUGCCACAAAGCUUGAGAGUAUCAGCGGAUGCAGAGGCGGCAGCCUUCGGUGGCGCGAUAGCGCCAACGUUCUCAACUAUGACACGCAAAACGCGUGCUCCGUUGAAUGGCGUUUAUCAUG [G11A C51U U55A U56G A142C] is higher in “polymerase ribozyme fitness (log ratio)” value: at most -4.2 for the first, -3.56 for the second.

First: GGAUCUUCUCAAUCUAACAAAAAAGACAAAUCUGCCAAAGAGCUUGAGAGCAUCUUCGGAUGCAGAGGCGGCAGCCUUCGGUGGCGCGAUAGCGCCAACGUUCUCAACUAUGACACGCAAAACGCGUGCUCCGUUGAAUGGAGUUUAUCAUG [G11A C38A A40G]
Second: GGAUCUUCUCAAUGUAACAAAAAAGACAAUUCUGCCACAAAGCAAGAGAGCAUCUUCGGAUGCAGAGGCGGCAGCCUUCGGUGGCGCGAUAUCGCCAACGUUCUCAACUAUGACACGCAAAACGCGUGCUCCGUUGAAUGGAGUUUAUCAUG [G11A C14G A30U U44A U45A G92U]
The “polymerase ribozyme fitness (log ratio)” value of the first is higher: -4.14 for the first, at most -4.2 for the second.

In the case of GGAUCUUCUCAAUCUAACAAAAAAGACAAAUCUGCCACAAAGCUUGAGAGCAUCUUCGGAUGCAGAGGCGGCAGCCUUCGGUGGCGCGAUAGCGCCAACGUUCUCAACUAUGAGACGCAAAACUCGUGCUCCGUUGAAUGGAGUUUAUCAUG [G11A C114G G124U], the “polymerase ribozyme fitness (log ratio)” value is reported as -4.03.
